Reference: the nanobody polyreactivity screen of Harvey et al. (2022)

Assay: yeast display, Sf9 membrane polyspecificity reagent, FACS + sequencing; frameworks hold sequencing errors
Procedure, shortened: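 A synthetic nanobody library was expressed on Saccharomyces cerevisiae BJ5465 by galactose induction for 36–48 hours. The library was stained for 1 hour at 4 °C with 10% biotinylated, detergent-solubilized Sf9 membrane reagent and enriched with streptavidin microbeads before FACS. Low and high (top ~1%) gates were set on anti-HA fluorescence for expression and streptavidin fluorescence for reagent binding, and each polyreactivity label reflects the gate of origin.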

Sequence	polyreactivity (PSR sort gate)
QVQLVESGGGLVQAGGSLRLSCAASGSIFEWYAMGWYRQAPGKERELVAAINSGGSTYYADSVKGRFTISRDNAKNTVYLQMNSLKPEDTAVYYCNADTLLQDRLGDWYDYDYWGQGTQVTVSS	low polyreactivity
QDQLVESGGGLVQAGGSLRLSCAASVSIFGYYAMGWYRQAHGKERELVADITSSGSTYYADSVKGRFTISRDNAKNTVYLQMNSLKPEDTAVYYCAADQYYLGSIDGFEYWGQGTQVTVSS	low polyreactivity
QVQLVESGGGLVQAGGSLRLSCAASGSTFWYSDMGWYRQARGKDRELVAAISGSGGRTYYADSVKGRFTISRDNAKNTVYIQMNSLKPEDTAVYYCAADDYWSADFKYNYWGQGTQVTVSS	low polyreactivity
QVQLVESGGGLVQAGGSLRLSCAASGSIFYLYAMGWYRQAPGKESELVAAITSGDSTTYADSVKWRFTISRDYAKNTVYLQMNSLKPEDTAVYYCAADWPGLVGYHNSAENDYWGQGTQVTVSS	low polyreactivity
QVQLVESGGGLVQAGGSLRLSCAASGSIFQYNAMGWYRQAPGKEREFVAAITRGGGTYYADSVKGRFTISRDNAKKTVYLQMNSLKPEDTAVYYCAAQSRTSYRFNYWGQGTQVTVSS	high polyreactivity
QVQLVESGGGLVQAGGSLRLSCAASGSIFRKYTMGWYKQAPGKERELVAAISGTAGRTYYADSVKGRFTISRDNAKNTVYLKMNSLKPEDTAVYYCAALRFGGYGYNYWGQGTQVTVSS	high polyreactivity
QVQLVESGGGLVQAGGSLRLSCAASGSTLNYYAMAWYRQAPGKEMELVAAITWSGGSTSYADSVKGRFTISRDNAKNTVYLQMNSLKPEDTAVYYCATDFPTVQLYDTDWLSSDMGYWGQGTQVTVSW	low polyreactivity
QVQLVESGGGLVQAGGSLRISCAASGRTVWNTLGWYRQAPGKERELVAAISYSGGTTYYADSVKGRFTISRDNAKNTVYLQMNSLNPEDTAVYYCAAVRVLRGVKYNYWGQGTEVTVSS	high polyreactivity
QVQHVESGGGLVQAGGSLRLSCAASGFIFDCNTMGWYRQAPGKERELVATIDFSGTSTYYADSVKGRFTISRDNAKNTVYFQMNSLKPEDTAVYYCNAVRSGWGYFFCLNYWGQGTQVTVSS	low polyreactivity
QVQLQERGGGLVQAGGSLRLSCAASGSIFHYTQMGWYLQAPGKEREFVAAITDGANTNYADSVKGRFTISRDNAKNTVNLQMNSLIPEDTAVFYCATDYGYTDRVTSGFDYWGQGTQVTVSS	low polyreactivity
QVQLQESGGGLVQAGGSLRLSCAASGSIFLLHIMCWYRQAPGKERESVAAISYGTSTYYADSVNGRFTICRDNAKNTVYLQMNSPKPDDTAVYYCAALFLVSKHHHFWGEGTQVTVSS	low polyreactivity
QDQLVESGGGLVQAGGSLRLSCAASGSIFTYNAMGWYRPAPGKERELVAAINTSGSTNYADSVKGRFTISRDNAKNTVYLQKYSLKPEDTAVYYCAAGIVVTVYDYWRQGTQVTVSS	low polyreactivity
QVQLVESGGGLVQAGGSLRLSCAASGIIFYKYAMGWYRQAPGKERELVAAITSGGGRTYYADSVKGRFTISRDNAKNTVYLQMNSLKPEDTAVYYCNADTYSAGDYWGQGTQVTVSS	high polyreactivity
QVQLVESGGGLVEAGGSLRLSCAAYGRTFDYYDMGWYRPAPGKERELVAGITVSSGGTNYADSVKGRFTISRDNAKNTVYLQMNSLNPEDTAVYYCADANYDFYAFDSTYRYNYWGQGTQVTVSS	low polyreactivity
QVQLVDSGGGLDQAGGSLRLSCSASGIIFRGNAMGWYRQAPGKEREFVAAIALRGSRSYYADSVKGRFTISRDNAKNTVYLQMISLKPEDTAVYYCAARYYSEPNAYYYWGQGTQLTVSS	high polyreactivity
QVQLVESGGGLVQAGGSLRLSCAASGRTFSRNAMGWYRQAPGKEREFVASISRSGTSTYYADSVKGRFTISRDNAKNTVYLQMNSLKPEDTAVYYCAKTYASSQGYDYWGQGTQVTVSS	high polyreactivity
QVKLVESGGGLVQAGGSLRLSCPASGSIFYRNTMGWYRQEPGKERELVASITSGSSTFYADSVKGRFTISRDNAKNTVYLQMNSLKAEDTAVYYCAKRRGSPGFRFRAGGAYGYWGQGTQVTVSS	low polyreactivity
QVHLVESGGGLVQAGGSLRLSCAASGFIFVRNAMGWYSQAPGKEREFVAAITRSGGSTYYADSVKVRFTISRDNAKNTVYLQMYSLKPEDTAVYYCAVLYHSRDSYTYRDEDYWGQGTQVTVSS	low polyreactivity
QVQLVESGGGLVQAGGSLRLSCAASGRIFEINAMGWYRQAPGKERELVAAITRSGGSTYYADSVKGRFTISRDNAKNTVYLQMNSLKPEDTAVYYCAARGRYWYSRYYSWGQGTQVTVSS	high polyreactivity
QDQLVESGGGLVQAGGSLRLSCAASGRILAYYAMGWSRQAPGKERELVAAISRAGSTNYADSVKGRFTISRDNAKNTVYLQMNSLKPEDTAVYYCAARPYRRGYNYWGQGTQVTVSS	high polyreactivity
QVQLVESGGGLVQAGGSLSLSCAASGIIFGLYTMGWYRQAPGKERELVAAISDSGGRTYYADSVKGRFTISRDNAKNTVYLQMNSLKPEETAVYYCAAEFWYVWEYNYWGQCTQVTVSS	high polyreactivity
QVQLVESVGGLVQAGGTHRLSCSASGSTFFYYAMGWYRQAPGKERELVAAISSSGGRTYYADSVKGRFTISRDTAKNTVYLQMNSLKPEDTAVYYCAARDYRQSRYEYWGQGTEVTVSS	high polyreactivity

Sequence	polyreactivity (PSR sort gate)
QVQHVESGGGLVQAGGSHRLSCAASGSTFGSNDMRWYRQSPGKERQLVAAIRGIVGSTYYADSVKGRFTISRDHAKNTVYLQMNSLKPEDTAVYYCNKAEVSTYYQSSSTYGGYDYWGQGTQVTVSS	low polyreactivity
QVQLVESGGGLVQAGGSLRLSCAASGRIFAHYAMGWYRQAPGKEREMVAAISRRGGSTYYAESVKGRFTISRDNAKNTVYLQMNRLKPEDTAVYYCNAVTRSSLSWFFGYDYWGQGTQVTVSS	high polyreactivity
QVQLVESGGCLVQAGGSLRLSCAASGSTIPLYAMGWYIQAPGKERELVAAITSGGGNTYYADSVKGRYTISRDNAKNTVYLQKTSLKPDDTAVYYCAAVVGYKSYYSYEYDYWGQGTQVNVSS	low polyreactivity
QVQLVESGGGLVQAGGSLRLSCAASGRIFGTNSIGWYIQAPRKERELVSAISSSTSTNYADSVKGRFTISRDNAKNTVYLLMYSLKRDDTAFYYFDADELRTDWDYAQGYDYWGQGTQVTVSS	low polyreactivity
QVQLVESGGGLVQAGGSLRLSCAASGRIFGDYAMGWYRQAPGKERELVAAISYSGGSTYYADSVKGRFTISRDNAKNTVYLQMNSLKPEDTAVYYCNKRWYTYGRYGVQGYDYWGQGTQVTVSS	high polyreactivity
QVQLVESGGGLVQAGGSRRLSCAASGLICLLYDMGWYREAPGKERELVAAISTGGSTDYADSVKGRFTISRDNAKNTVYLPLNSLKPEDTAVYYCAADYYLYYLDGEDYWVQGTQVTVSS	high polyreactivity
QVQIVESGRGLVQAGGSLRLSCAASGLTFARNAMGWSRPAPGKQRELVAAITSGASTTYADSVKGRITISRDNAMNTVSVQMNSLKPEDTAVYYCAAPGYWVRTYGGWSRLDYWGQGTQVTVSS	high polyreactivity
QVQLVESRGGLVQAGGSLRLSCAASGRIFETNTMGWYRQAPGKEREFVAAITFSGGRTNYADSVKGRFTISRDNAKNTDYLPMNSLKPEDTAVYYCAAAGRRRKYYYWGQGTQVTVSS	high polyreactivity
QVQLVESGGGLVQAGGSLRLSCAASGSTLDSNAMGWYRQATGKERELVAAIDWSGGSTYYADSVKGRFTISRDHAKNTVYLQMNSLKPEDTAVYYCAADDSSINYGDFDYWGQGTQVTVSS	low polyreactivity
QVQLVESGGGLVQAGGSLRLSCAASGSIFWPYAMGWYRQAPGKERELVAGISRSGGITYYADSVKGRFTISRDNAKNTVYLQMNSLKPEDTAVYYCARYQEWRQEYDYWGQGTQVTVSS	high polyreactivity
QVHLVESGGGLVQAGGSLRLSCAASGLTFYGNAMGCYRQAPGKERELVAAISSSGGTTYYADSVKGRFTISRDNAKNTVYLQMNSLKPEDTAVYYCAARPSGGFESTRTRDYWGQGTQVTVSS	low polyreactivity
QVQLVESGGGLVQAGGSLRLSCAASGSTFKVNVMGCYRKAPVKERELVAAINQSVRGTYYADSVKGRFTISRDNAKNTVYLQMNSLKPEDTAVYYCAAKIIVLRYVLSQEQRRYNYWGQGTQVTVSS	low polyreactivity
QVQLVESGGGLVQAGGSLRLSCAASGFTFIRYAMGWYRPAPGKERELVATITRRGGSTYYADSVKGRFSISRDNAKNTVYLQMNCLKPEDTAVYYCNRDYVTYGKYYYWGQGTQVTVSS	high polyreactivity
QVQLVESGGGLVQAGGSLRLSCAASGFTIFLNAMGWYRQAPGKERELVAAITVSGSSTYYADSVKGRFTISRDNAKNTVYLQMNSLKPEDTAVYYCNAEIYSPYYTYDYWGQGTQVTVSS	low polyreactivity
QVQLVESGGGLVQAGGSLRLSCAASGRTFVVNAMGGYRQAPGKERELVAAITYSGDTTYYADSVKGRFTISRDNAKNTVYLQMNSLKPEDTAVYYCAADTGVVSPPAGLLIGPFDSWGQGTQVTVSS	low polyreactivity
QVQLVESGGGLVQAGGSLRLSCADSGRTFQYYAMGWSRQSPAKERELVAAITSGGSTYYADSVKGRFTISRDNAKNTVYLQMNSLKTEDTAVYYCAADFLYYSSGGKMDYWGQGTQVTVSS	low polyreactivity
QVQLVESGGGLVQAGGSLRLSCASSGSIFYNNAMGWYRQAPGKERELVAAIRSTGTRTYYSDSVKGRFTISRDTAKNTVYLQMNSLKPEDTAVYYCAVGDYGLWSYDYWGQGTQVTVSA	low polyreactivity
QVQLVESGGGLVQAGGSLRLSCASSGIIFAQYTMGWYRQEPGKERELVAAINRNGGSTYYADSVKGRCTISRDNAKHTVYLQMNSLKPEDTAVYYCTKDIERYVRIYDSWGQGTQVTVSS	low polyreactivity
QVQLVESGGGLVQAGGSLRLICAASGRNFNHYAMGWYRQAPGKERELVAGITISCGSTYYADSVKGRFTISRDNSKNTVSLQINSLKPEVTAVYYCNAVYDYYRQSKWSMDYWGQGTQVTVSS	low polyreactivity
QVQLVESGGGLVQAGGSLRLSCAASGITFKFYAMGWYRQAPGKEREWVATISWSGGITYYADSVKGRFTISRDNAKNTVYLQMNSLKPEDTAVYYCAADGPFTPRYYYWGQGTQVTVSS	low polyreactivity
QVQLVESGGGLVQAGGSLRLSCAASGLIFGYYAMGWYRQAPGKEREFVAAIDGSDGTTYYADSVKGRFTISRDNAKNTVYLQMNSLKPEDTAVYFCNADSSSYSSDLGYDYWGQGTQVTVSS	low polyreactivity
